Reference: a protein production outcome set (Wang et al. 2014)

Assay: label from the status in PepcDB records
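Further: failed if final PepcDB status was selected cloned or expressed and not failed if soluble or beyond.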

Sequence | protein production
MSEFHSEISTLSPAPLWQFFDKICSIPHPSKHEEALAQYIINWATEQGFDVRRDPTGNVFIKKPATPGMENKKGVVLQAHIDMVPQKNEDTDHDFTKDPIQPYIDGEWVTAKGTTLGADNGIGMASCLAVLASKDIKHGPIEVLLTIDEEAGMTGAFGLEAGWLEGDILLNTDSEQEGEVYMGCAGGIDGAMTFDIKRDAIPTGFVTRQLTLKGLKGGHSGCDIHTGRGNANKLLGRFLAGHAQELDLRLVEFRGGSLRNAIPREAFVTVAVPAENQEKLAELFNYYTELLKAELGKVETGIVTFNEEIVTESQAFTAADQQRFIAALNACPNGVMRMSDEIEGVVETSLNVGVITTEENKVTVLCLIRSLIDSGRSQVESMLRSVAELAGAQVEFSGAYPGWKPDADSEIMAIFRDMYEGIYGHKPNIMVIHAGLECGLFKEPYPNMDMVSFGPTIKFPHSPDEKVKIDTVQLFWDQMVALLEAIPEKALEHHHHHH | not failed
MSEFRPVPTTDREACQRILQYAFAPETGPVPPDPDGDWPPSLFDQRGLYDGGTLRAVCKLYFFDTTVRGAATTVGGLGAVATPPEHRGQGLAADLCRHALSAYRKADVGFVTLWPFSTPFYHRLGWGTANTYRRFDLPPSALPDPSTAGQLVRLDADDWERLRRVETAAAAGTALSLRRSEAWWRERTLADWDDDGVPYCYGYERDGELQGYVVYTVADDANNTLSVSNFAAVDEEARRALFAFLGHHGAQIERVTLQLPPDTDLFHRVDDPGAVDCTVEAGPMVRLTDVDYLERLDWPGGDLDCTLSVNDPLLDHNDGLFRLSVNGGTATVDPLPASDSKADVAVDIATLSQLAVGTHGVDAAERLAGLEMFDDSVRGPLADVFQPESVYLGEFF | failed
MSEKELELLARIEELERHTWRNSAILRAVAMVAGTAMIGIIVASGVVGGGHGSHWTGPAWNTMWLYGLFAANAVSMFWTTHKD | failed
MSEKKAVIGVVTISDRASKGIYEDISGKAIIDYLKDVIITPFEVEYRVIPDERDLIEKTLIELADEKGCSLILTTGGTGPAPRDVTPEATEAVCEKMLPGFGELMRQVSLKQVPTAILSRQTAGIRGSCLIVNLPGKPQSIKVCLDAVMPAIPYCIDLIGGAYIDTDPNKVKAFRPKK | not failed
MSELFSNDNIFLNVNVNSQNEAIEKAGKALVDSGAVTDAYIQAMKDREQVVSTFMGNGLAIPHGTDEAKTNVIHSGLTLLQIPEGVDWDGEVVKVVVGIAGKDGEHLDLLSKIAITFSEEENVDRIVQAKSAEEIKQVFEEADA | failed
MSERAGEKKLDLLITGVGGQGAILASDIIGKAAVISGIPIRAAETHGMAQRGGSVVNHIRLGSDLGSMIPKKGADIMLALEPMEAVRYLDFLKDGGVIIVNTQSIIPVTVTSGLSKYPEVQEILDALSEKYVVKAFNADELAHEAGSRLAMNVAMVGAVSGYLPISKEVLLESVKVLVPKKTIEINIRAFEMGREEVEES | not failed
MSERIVPSGDVELWSDDFGDPADPALLLVMGGNLSALGWPDEFARRLADGGLHVIRYDHRDTGRSTTRDFAAHPYGFGELAADAVAVLDGWGVDRAHVVGLSMGATITQVIALDHHDRLSSLTMLLGGGLDIDFDANIERVMRGEPTLDGLPGPQQPFLDALALMNQPAEGRAAEVAKRVSKWRILSGTGVPFDDAEYARWEERAIDHAGGVLAEPYAHYSLTLPPPSRAAELREVTVPTLVIQAEHDPIAPAPHGKHLAGLIPTARLAEIPGMGHALPSSVHGPLAEVILAHTRSAA | not failed
MSERVKVAILGSGNIGTDLMYKLLKNPGHMELVAVVGIDPKSEGLARARALGLEASHEGIAYILERPEIKIVFDATSAKAHVRHAKLLREAGKIAIDLTPAARGPYVVPPVNLKEHLDKDNVNLITCGGQATIPLVYAVHRVAPVLYAEMVSTVASRSAGPGTRQNIDEFTFTTARGLEAIGGAKKGKAIIILNPAEPPILMTNTVRCIPEDEGFDREAVVASVRAMEREVQAYVPGYRLKADPVFERLPTPWGERTVVSMLLEVEGAGDYLPKYAGNLDIMTASARRVGEVFAQHLLGKPVEEVVA | not failed
MSETAIQTKTQARQRKVFAHHHVQHYRSQLERRISHSPQFREGKVINAMPHITATPSWWQTAWSYFGGRAQLKPNAQLPVAPLNLQALQTRSKALRVTWLGHSSLFIEVDGLRVLTDPVFDYASPWIAKAWFARNLPNSGVREQLPLPDVIVISHDHYDHLEQASVVYYAAHSVTFYVPLGVGQHLIRWGVSPERIIEFDWWEQIKREGVEFICTPANHNSGRYYLDHNATLWCSWVIKGHQETLYFSGDSAYDTHFAKIAERCGPIDLACLEVAADVKQHQGYPVENWGHMQAKHTVQAFRDLQAKKLLPIHWATYELFTHQWDEPIADLVKHCQEQSITLLTPMAGESLTMANHSASHAWWQGLETEPMSGARYWQMGLACSLLLLLMVV | failed
MSETDLLLKMVRQPVKLYSVATLFHEFSEVITKLEHSVQKEPTSLLSEENWHKQFLKFAQALPAHGSASWLNLDDALQAVVGNSRSAFLHQLIAKLKSRHLQVLELNKIGSEPLDLSNLPAPFYVLLPESFAARITLLVQDKALPYVRVSFEYWHA | not failed
MSEWMKKSPLEWEDYVYKEVRVIACEKEYKGWLLTTDPVSANIVLVNFLEDGRLSVTGIMGHSVQTVETISEGDHRVREKLMHVFASGDCKGYSPEDLEEKRTSLKKWLEKNHIPVTEQGDAQRTLCVAGVLTIDPPYAPENCSSSNEIILSRIQDLIQGHLSASQ | failed
MSEYLPGIIWLVVLLVVNAFFVGAEFAVISARRSQIEPKAEAGSKAAKTTLWAMEHATLMLATSQLGITVCSLVILNVSEPAIHHLLEIPLGLTSLSGEAIGIIAFVAALLLVTFLHVVLGEMVPKNISFSVPTRAALILAPPLVMVARILKPVIWTLNGIANSILRLFKVEPKDEATSAYTLDEVANIVEQSTRDGMLSDTSGTLTAAFEFTSKTVADVEVPIGEMVLLPATSTPADIQRAVAEHGYSRYILTDDDGTPTGYLHLKDVMDLTTREKFDQPVPAKRIRKLASAYSGSELEDALATMRRSGAHVARVFDAAGNTTGVLFLEDIIEELVGEVQDATST | not failed
MSFADLGLSDKVLQAVTTAGYTEPTPIQAQAIPHVLARRDVLGIAQTGTGKTAAFTLPMLTMLETGRARARMPRTLILEPTRELAAQVEENFERYGTNHKLNVALIIGGVSFADQDAKLTRGTDVLIATPGRLLDHFERGKLLLTGVELLVIDEADRMLDMGFIPDIERIVKMVPFTRQTLFFSATMPPEIERLADMFLHNPQRVEVARPASTATTIEQRLVATGAEGHEKRKVLRHLIRSASELQNGIIFCNRKRDVAQLQRSLTSHGFNAAALHGDMDQRARMAALDGFRSGEVPLLVASDVAARGLDIPAVSHVFNFDVPHHPEDYVHRIGRTGRAGRSGQAFTLASRSDERSLSAIESLIGQPIAWLDGDLASVSDEVEGDEPRRRRGSRRAKETKGGEETKSGGRSTERSAAPASESPRSENRSRGGRRPAAERSRADAPRRDPVREPEPVAVVPSAPPAPPRELAREPVRSAPERARGERRPPRRDEDGETPVGLGSHVPAFLLKPTGFGKSK | failed
MSFAIEALGQGRFDEVEILCREILKEVPDHFHATHLLGLRAFDGGWLEDAQFLLERAVALDPRSPDAHGNLGAVYFALERFKDARACQEKAIALKPNCPITLTNLGNTLLHLGLAKEAIELHERAIRLKPNYADAFCNRGMAELMIGQFERAGVDFDRALSFQPRHAEAIAGKAMVSLELRHFEAAEAAFEASLALKPGSPRILVQRGRLHLTLYRLEQAAADFDAALAQSPRNELALCWRAQVDIMVRNTAGAMAGVKTLLEVNPQSEAGMSLLASCHANQGDIATALEYLDAALAIAPDFPEAIGYKIFVLDYLPEADFVVQQAARKYWWDQIGAKLPQRTLSPRDLDPDRRIVIGYVASEFRQHSAAYTLLPVMRHHDHAKFKIVCYSCWPLQDGMTEKFKACADVWVEAAQFSDDELADRIQADGIDILIDVSGHTTGSRLHVFSRKPAPIQVTGFGHATGTGLQTMDYVLADPIFIPQSARHLLAEKVYDLPSLITIDPIQDVPPSELPMLRNGYVTFGVFNRILKISDEAIRVWSKVMREVAGSKIIIKNGLLDDPMLRDGLIARFVAQGIAEENVICMGSTSRREHLRAFANVDISLDTFPQNGGISTWESLYAGVPVVAKLGNGSSSRAGGSIVAAVGLGDWVADDDEGYAAIACKFAAQPAHLAKLRADLPAQIANSPAGNVEIYTREVEAGYRQFWRDYCAEASETCDVA | failed
